assay: soluble on expression in E. coli; label from the status in PepcDB or PDB records

Row | Sequence | soluble on expression in E. coli
1 | MGSDKIHHHHHHMLSRTAENLFWLARYVERAEYLARTIEATLRVTALPSAYIGKTNEWDSALLTAGVGGNFYNFHDEANEQSVVDYLAFSSDNPSSIRNCIENARLNARSVRTALTGEMWDTLNSAWIELQEAWGKGTKTREDLTRFLRFVQEISLRFDGSAYRTMLRNDAYWFSRLGLHLERADNTARILDVKYHVLLPEEEHVGGPLDYYQWSSILRSVSALTAYHWVYRETLKPWLIADLLILNDTLPRSLASCYGNLTRNLDNIGVAYGRHGAAQRHARGVRNRLEHSKMDDIFQRGVHEFIQEFIADNARLGEVIAKQYLI | not soluble
2 | MGSDKIHHHHHHFDEETAFQSPTLVYVNTVASLYNNMFKIMGNDRHVYDLNTFSSDEAMLPCRIGDWEDGGLWQNIFLHRWGTMNDLTKNSWDFLYEQIGKCNQSVDKLQAFAEEQPDVEYFKVYLEEVRAVRAFFYYELLDLFARVPLVTSSTTPMSEVKQSERSVVFNFVRSELEEALPYLSDNRSNQKGEYYGRITKPVAYMILAKLALNAEVYADDNWTDGNRPAGKNIKFTVDGKEMNAWEATIAYVDKLEALGYKLQGNFSENFAVANETSVENIFTVPMDPVAYPDAKDYNLVRTRHYDHATAYGQSGWNGSCATVKAMNVFKFGTADEDPRCKLTYFTGEVTGPDGKTIYTEWDGQKVPLKYEPNAPKVYMDASDGLLVKTAGARMAKYEFDQNAQDGGNLHGNDCVIFRFADALLMKAEAKIRLGQNGDDEVNQVRNRVGAKPLQNVTLDTLLDERMLELAWEGVRRQDLIRFGKFTEATVDRYVGVKHFASSLDYQEDKTGYTTVFSIYADILSLNPNLTQNPGY | not soluble
3 | MAHHHHHHMAYRVQKTTPAVVDNGTSSDGDEAQRASHKTAKTSSPSPIPKPARRKAPIADSDSDDESATRPAAKTTSPKFALKKAAVDSDSSDEDEPVPKNSSAGKRPAPRAEEAPAQRAARTESEGAARRTPHHLNEDGTFRRFQRIDPAKVTFDADALRDNRPGREHLVLRQNQEMMRTKGKGFNKLKQKNKGKFYGAGVDLSVRAYQFPDSDDE | soluble
4 | SLRYSKLTMLIPCALLLSACTTVTPAYKDNGTRSGPCVEGGPDNVAQQFYDYRILHRSNDITALRPYLSDKLATLLSDASRDNNHRELLTNDPFSSRTTLPDSAHVASASTIPNRDARNIPLRVDLKQGDQGWQDEVLMIQEGQCWVIDDVRYLGGSVHATAGTLRQSIENR | not soluble
5 | AQAEASSAQAAQQKNFNIAAQPLQSAMLRFAEQAGMQVFFDEVKLDGMQAAALNGSMSVEQGLRRLIGGNPVAFRLQPQGQIVLSRLPTANGDGGALALDSLTVLGAGGNNANDWVYDEPRSVSVISREQMDNRPARHAADILEQTTGAYSSVSQQDPALSVNIRGIQDYGRVNMNIDGMRQNFQKSGHGQRNGTMYIDSELLSGVTIDKGTTGGMGSAGTLGGIATFNTVSASDFLAPGKELGGKLHASTGDNGTHFIGSGILALGNETGDILLAASERHLGDYWPGNKGDIGNIRINNDTGNYDRYAESIKNNKIPDTHYRMHSRLAKVGWNLPANQRLQLSYLQTQTASPIAGTLTNLGTRPPYELGWKRTGYTDVMARNAAFDYSLAPEDVDWLDFQAKLYYVDTQDDSDTYSTSSLLDNGYATRTRLRTYGAQAQNTSRFSLAPGHDFRANYGLEFYYDKATSDSSRQGMEGVTPAGNRSVASLFANLTYDYDGWLTLEGGLRYDRYRLRGQTGLSYPDLAKDGQRYTIDNPCKALRLTGCSTTTREDWDVDRDQGKLSPTLAVAVRPGVEWLELYTTYGKSWRPPAITETLTNGSAHSSSTQYPNPFLQPERSRAWEVGFNVQQPDLWFEGDRLVAKVAYFDTKVDNYINLAIDRNKPGLVQPSIGNAAYVNNLSKTRFRGLEYQLNYDAGVFYADLTYTHMIGKNEFCSNKAWLGGRLRYGDGSRRGNFYVEPDAASNDFVTCDGGTQFGSAAYLPGDRGSVTLGGRAFDRKLDAGVTVRFAPGYQDSSVPSNYPYLADWPKYTLFDLYASYKLTDSLTLRGSVENLTNRAYVVSYGETLANTLGRGRTVQGGVEYRF | soluble
6 | MSLFIHIVGPGDSLFSIGRRYGASVDQIRGVNGLDETNIVPGQALLIPLYVYTVQPRDTLTAIAAKAFVPLERLRAANPGISPNALQAGAKITIPSISNYIAGTLSFYVLRNPDLDRELINDYAPYSSSISIFEYHIAPNGDIANQLNDAAAIETTWQRRVTPLATITNLTSGGFSTEIVHQVLNNPTARTNLVNNIYDLVSTRGYGGVTIDFEQVSAADRDLFTGFLRQLRDRLQAGGYVLTIAVPAKTSDNIPWLRGYDYGGIGAVVNYMFIMAYDWHHAGSEPGPVAPITEIRRTIEFTIAQVPSRKIIIGVPLYGYDWIIPYQPGTVASAISNQNAIERAMRYQAPIQYSAEYQSPFFRYSDQQGRTHEVWFEDVRSMSRKMQIVREYRLQAIGAWQLTLAEGHHHHHH | soluble
7 | MYKPKNINSVLTFYKDQIQLVVSDDQNQFNILFYQTIDNDGFYSKQQLKNKLRLKLALNQLVDQANYFLGFKLEKVVVVLAELIDDLKIHNFKSEIFFTGYDFDHKAMIKKEKQRFCEQNNQLTVMDTMVLNYHDVINNKITKSFAFNKSYVANLVAYSSKSNLIGELKFFLKRNVNLKVKKIISHHLALANSLSKKQNNMFVYLGQKTTELMLFMDNALVDVITNQFGKNHFIDIPANQENKPLLEFLVDNTTKIGDCYSLGMTYTDGDSYKEIKALTIGDLMQTVSDKIKTLIDFINSGSLTFFNKFKTLPKLLYFYTRSKQITNLFQANVALINPQFKTVDIYKNKIQFISENYLLSCEAISLQITNRIKNQISFDFTNADNIQKPKPKKHFMILSKHLTKFVQRLVK | soluble
8 | MKKLATLTALAGALTMAVATAAQAESKSSSTDNTATPCVGDKCVKTKAAEGKCGEGKCGADKAKSAEGKCGEGKCGADKAKSAEGKCGEGKCGSK | not soluble
9 | GPGSMQAIITTAKSFAGDEKRPRDVKAAAAAPVLDWATMYTRRPAGTSTLFTLEAMVAKRMELLAWIDQLMNSPNVRSFSVVLDEIGARLPIERRKHVTQHAADHVVVLGRDDSPAADDADSFRTPRLSVSRSSGSAALNAFVFEGDEDLISHLLARFAFCMSEQWRKWFVKTEEALLRARLKLQMAKYETDFLPSLMRDNGLPCDPLSDEQWQDPLLQEYIVYFAVFQGKQQSRSREDYFSVPMTLATRLIKTRSVLCLKGHAILHRDQAQEVFVTVFRSKLNKGLHEAYLARMRLTSNEEDEERETVMRMLDAFLEYFVSDPTSAIQEAASGAVSAGEVRRIAQTHFPLCMRQVDEHLRREGHLKHHGRFTYGLFLKAIGLSLQDSMTLFSSLMTVKGVAGNSEAFAKTAYGYNIRHNYGMEGKKTSYSSMSCATLLALPPVVDRFDCHGCPFRFKDEGAFRSMLLKEQLNPLGKEHPPLRPSASDIEEIVQDCKGQHYTRACYKYFVATHPGVKRDTLFRSPFEYYTLSREVGERPEEILSEQTTPARRLMTGDSLKRSMFTPTLKEDVIRERKSPP | not soluble
10 | MGSDKIHHHHHHMELVVDAHELKEWVYLLDKLVGTTEPTARFLSFFYRDGLWVSASDNCAKVEIFLGEIPRFEGSRIVSLDLVKYFLSDVKVSDVRITVLQERLVLKAGNEVLDVRCKTGEIPPGDGEEEFLCTLTKREFEGALNFASSNLDEGEFLILLFEEKDVLMFGASAGIMTLAQISTIPKKPFSTKIPYVTVRHIFKAFQRLDVQTLDFYEKSGKLVVKYPHFVMEVCGDEVSEEEIKKLKSLLEEKTAERIEARRQVLAKLVRKAAVLSRGDYATISRRGENLKVQVKRKNLSYTAELFVESGRDFVVVFPSKKLRSALARMDTERIFLEITERFLKISNFSGTRVIYLELEEFF | not soluble
11 | MKSTGETLNIEEKVFAIADQFDHQGKIVQIKPFGNGNINDTFLVDLDGQTQTSFILQRINHQVFKNPAAVMGNMVRVTTHIKQKLQRQPLERPWLMPEVILTKNNQDHWDSGTGEFWRAISFIAGSESFDILTDPAQAKEVGTALGIFHQLLSDLSPSQLVDTLPGFHHTPIYLQQYQRALAQNPKLTGSLGPEINHCQRVIKTWLDQCGVLETAKAQGQLPLRLMHGDPKVNNILFDRQSGKAVSVIDLDTTKPGLIHYDLGDCLRSGCNLLGEETENWSAVEFDLDLCRAILEGYLPQCQHFLTAADYDYLCPAIVLISFELGLRFFTDYLNGDRYFKVKYPEHNLIRALVQFQLASHIQSQEDAIRRMIEDIRGLEHHHHHH | not soluble
12 | SHMQLKFAECLEKKVDMSKVNLEVIKPWITKRVTEILGFEDDVVIEFIFNQLEVKNPDSKMMQINLTGFLNGKNAREFMGELWPLLLSAQENIAGIPSAFLELKKEEIKQR | soluble
13 | GKGLGRRVLSINEIVGYDAVNQAFNFMDIFKWDPATDTFKFTGKNNSYLLEHKIAPRMGIPETQVRKIYSELDRRSKILRKIHQANITNFYDLFTTLIQLEEAGVIS | not soluble
14 | MGSDKIHHHHHHMENDILKYQKAYNTIVKLLKSNEKVLATMVFGSIVSGDLWEESDIDLFVIIDEEMANIKNIYMEQNDVPIHIKLMGKNKFVLLNENDIKGGFFHRIFASSKLVFSKDKDITEKYDSGRYYPDIDREKWNMVYISDLLKSLGLCKKYLNNKRIYTAYYFSVKCVEEFSKLYINHSGYMVNKDDVNMLTNINGDFKNYIDNLFFSKDNVEEAIKEVVDKIEEFINKNIKSITAILIDYMRDKDKSLSAEDINTDPVFNDFSINFEEILSKLWEFNIIKKGTRKYSIKDGKALCMENVYYL | not soluble
15 | MSLTSSQKDIINDILSAMQCYPENEAFIIDDKHYTYAQLGEITASITHSLSEIKDEKIGIVAENRIETYAAILAVLAGGKTYVILHPAYPEERNLKIAALAGLRTLLCTSDTDRSAFGTGHFRIIDTDRLPGKAQSEQQSHSSNEERNAYIIFTSGSTGEPKGVPITRANLNAFYRAYSLLDWNLDEHDRMLQMFELTFDVSVVSLLYPLTLGAAVYTVGHQDVKHFKVFELLEKYQLTFATVTPSLLQLLSPYFDEINLPSLKYLGVSAEASQTELLERFRKSVPNATFINLYGPTEATIYCTCYRIPASDKCKHYNGMVAIGKPFPGIRAIIADEEGNELPQGETGELWVSGRQVMKGYLDDPEKSALVLIHRPDGQIYYRTGDLCILDSDGDIIYCGRKDYQVKIQGFRIELSEIEYTAQSFFKTPCSVAAVPLLCDGICNELHLAVETTECTQSALIEYLKEKLPKYMLPKQIHCISQFPVTNSNKTDRKKIAELIKEGHHHHHH | soluble
16 | AKGEVWEAKPVGAAALPQWIRGRLDKIGLGIEADALALFAERVEGNLLAARQEIDKLGLLYPKGHTVNIDEAQTAVANVARFDAFQLAGAWMKGDVLRVCRLLDGLREEGEEPVLLLWAVAEDVRTLIRLAAALKQGQSIQSVRNSLRLWGDKQTLAPLAVKRISVVRLLDALKTCAQIDRIIKGAEDGDAWTVFKRLVVSLAE | soluble
17 | MGSDKIHHHHHHMNNQEKNMLGFNQDEYLTSAREIIAARQKAEQVADEIYQAGFSSLFFASVGGSLAPMMAINEFAKELTTLPVYVEQAAELIHKGNKRLNKDSVVITLSKSGDTKESVAIAEWCKAQGIRVVAITKNADSPLAQAATWHIPMRHKNGVEYEYMLLYWLFFRVLSRNNEFASYDRFASQLEILPANLLKAKQKFDPQADAIASRYHNSDYMMWVGGAEMWGEVYLFSMCILEEMQWKRTRPVSSAEFFHGALELLEKDVPLILVKGEGKCRALDERVERFASKITDNLVVIDPKAYALDGIDDEFRWIMAPCVVSTLLVDRLAAHFEKYTGHSLDIRRYYRQFDY | soluble
18 | KVDKKTYKNLIVELQQRMREIQFALYERKIPLVLVFEGMDAAGKGGNIKRIREKLDPTGYEVNGISAPTDVELKHHYLWRFAKKMPKSGHIEIFDRSWYGRVLVERVEGFASQNEWQRASDEINQFEKMWTDEGTIILKFFLCLDKDEQLKRFKDRENNPDKQWKITEEDWRNREKWDEYLEASHDMIESTNTSYAPWYIVPADHKKTSRIEVLKTIIRKCEEVLWGVKTY | not soluble
